Test results from the supplement of paper PMC9732359.
± gives the uncertainty stated by the source.

Test: protein stability index of a GFP-peptide fusion (yeast GPS) (PSI 1-4); higher = more stable; sorted into four equal gates, so the index is relative within each strain
Outline: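 Sequencing reads from sorted gates were used to score each peptide. The library consisted of tiled 17-residue yeast protein peptides fused downstream of GFP on a Cherry-expressing plasmid, pooled and carried in yeast. Mid-log cultures in leucine-free medium were split into four equal gates by GFP/Cherry ratio, and each gate's plasmids were PCR-amplified and Illumina-sequenced. The protein stability index adds up, over all gates, the read frequency multiplied by the gate number.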

Sequence | protein stability index (doa10∆) | protein stability index (pdr5∆) | protein stability index (san1∆) | protein stability index (ubr1∆)
SKQLSLEEKKKRPNNKT [IRR1] | 2.5 ± 0.11 | 2.59 ± 0.094 | 2.21 ± 0.15 | 2.79 ± 0.096
ADYRLILTGTPLQNNLP [SNF2] | 2.08 ± 0.047 | 2.15 ± 0.043 | 1.65 ± 0.058 | 2.03 ± 0.037
PEIGNRKINLFYLYMLV [SWI1] | 1.54 ± 0.1 | 1.32 ± 0.054 | 1.1 ± 0.22 | 2.22 ± 0.094
IQAVFCLTKFQDEEQTE [YCG1] | 2.23 ± 0.057 | 2.24 ± 0.062 | 2.64 ± 0.057 | 2.82 ± 0.06
QDISSSTRVEFEKLYSD [FAS2] |  | 3.05 ± 0.24 | 3.27 ± 0.14 | 
AQQAQQAQQAQQAQARL [SNF2] | 3.08 ± 0.051 | 3.24 ± 0.048 | 3.13 ± 0.035 | 3.2 ± 0.045
RTWYESFCGFLLYYIPS [YJR042W/NUP85] | 1.88 ± 0.055 | 1.43 ± 0.047 | 1.58 ± 0.11 | 1.99 ± 0.057
IYAKYGAKGSTLIVVPF [FAS2] | 2.4 ± 0.072 | 2.72 ± 0.073 | 2.34 ± 0.11 | 2.13 ± 0.05
SAQAETEALLLEHDVEY [DIS3] | 3.19 ± 0.087 | 3.22 ± 0.098 | 3.3 ± 0.095 | 3.15 ± 0.066
NVPGVETANVASLNLLQ [RPL4A] | 2.71 ± 0.053 | 3.05 ± 0.055 | 2.86 ± 0.044 | 2.87 ± 0.041
ARLDGHDFLFNTIIRDG [RPN14] | 2.83 ± 0.091 | 2.95 ± 0.06 | 3.32 ± 0.056 | 2.81 ± 0.044
LWDQDIAIAGTGQIEGL [COR1] | 3.12 ± 0.089 | 3.37 ± 0.077 | 3.05 ± 0.055 | 2.98 ± 0.05
FGYPETIANSIILHFAN [YMR153W/NUP53] | 2.05 ± 0.062 | 2.23 ± 0.067 | 1.88 ± 0.09 | 2.15 ± 0.066
NDRESVLTNIEVYRTSL [SMC3] | 2.94 ± 0.13 | 3.21 ± 0.15 | 3.05 ± 0.12 | 2.97 ± 0.081
SINKNNKEMHTDLGKDI [SSN2] |  | 2.07 ± 0.22 | 3.21 ± 0.12 | 3.48 ± 0.14
LNGILADEMGLGKTIQT [SNF2] | 2.91 ± 0.11 | 2.67 ± 0.1 | 3.29 ± 0.066 | 2.56 ± 0.095
QEYAIEMKIGSIESKLE [SMC1] | 2.84 ± 0.091 | 3.34 ± 0.12 | 2.74 ± 0.1 | 2.94 ± 0.093
GKNVINRERFISKLFLR [SMD2] | 2.85 ± 0.093 | 1.69 ± 0.067 | 1.73 ± 0.14 | 2.68 ± 0.12
ASVEIVFHDPDHSMILP [SMC3] | 2.26 ± 0.11 | 2.54 ± 0.12 | 2.98 ± 0.15 | 2.65 ± 0.079
RHKNKHIQGFPTLGERL [DSN1] | 3.41 ± 0.091 | 3.64 ± 0.13 | 3.37 ± 0.06 | 3.44 ± 0.076
ILNELEVFIGRVKDQDG [YJR042W/NUP85] | 3.06 ± 0.14 | 3.05 ± 0.18 | 3 ± 0.12 | 2.59 ± 0.059
LFKGTGFNSWEGLFWEK [PRP8] | 2.44 ± 0.12 | 2.42 ± 0.13 | 3.36 ± 0.13 | 1.64 ± 0.04
FLNSNAVVVGTGNIKHE [COR1] | 1.18 ± 0.085 | 1.36 ± 0.15 | 1.06 ± 0.22 | 1.24 ± 0.12
QKQWDDIAFVLNNLPYK [YCS4] | 2.48 ± 0.077 | 3.09 ± 0.082 | 2.97 ± 0.11 | 3.18 ± 0.086
SNASQMGNTGSGGYDNA [RPB3] | 3.43 ± 0.27 | 3.32 ± 0.17 | 3.52 ± 0.2 | 2.5 ± 0.15

Sequence | protein stability index (doa10∆) | protein stability index (pdr5∆) | protein stability index (san1∆) | protein stability index (ubr1∆)
AAGSYYVEAQHKLVFVV [RPL7A] | 2.33 ± 0.072 | 2.74 ± 0.048 | 2.26 ± 0.069 | 2.4 ± 0.044
KAKVDDLVLGKPLADLR [YLR335W/NUP2] | 3.23 ± 0.25 | 3.56 ± 0.21 | 3.39 ± 0.072 | 3.35 ± 0.09
HLLPAFLKVKGLVKQHL [RET1] | 3.2 ± 0.22 | 3.8 ± 0.2 |  | 
MKLKLMIVYYKDAISFI [YCS4] | 1.82 ± 0.053 | 1.49 ± 0.049 | 1.8 ± 0.091 | 1.73 ± 0.042
KSLEVVNADTVGKTVKQ [NSL1] | 3.13 ± 0.059 | 2.99 ± 0.049 | 2.77 ± 0.051 | 3.08 ± 0.047
PKLESVKWQYDPNNPVD [SNF12] | 2.38 ± 0.059 | 2.81 ± 0.055 | 2.21 ± 0.067 | 2.55 ± 0.031
PEDLNSLYIYYLIKLLG [SIR2] | 2.07 ± 0.053 | 2.15 ± 0.05 | 2.18 ± 0.064 | 1.95 ± 0.056
IPLGKNVVVKWQGKPVF [RIP1] | 3.36 ± 0.26 |  | 3.42 ± 0.07 | 2.96 ± 0.26
HNMKAYYKKFLIEPLPT [BRR2] | 1.26 ± 0.055 | 1.58 ± 0.07 | 1.18 ± 0.16 | 1.44 ± 0.084
DRAIRKTCQWYSEHLKP [DIS3] | 3.17 ± 0.089 | 3.1 ± 0.096 | 3.01 ± 0.07 | 3.3 ± 0.12
NSADAAYAQVEIQPRAN [FAS2] | 2.82 ± 0.054 | 2.76 ± 0.065 | 2.21 ± 0.061 | 2.79 ± 0.048
FFRNKLKYHDFLRKATA [RPL16B] | 2.02 ± 0.085 | 2.48 ± 0.086 | 2.4 ± 0.079 | 2.23 ± 0.072
NQVMMDRKIQGWLGALT [ARP7] | 2.84 ± 0.069 | 3.18 ± 0.052 | 3 ± 0.054 | 2.98 ± 0.044
PLELSAPIGKHYVVLDT [DIS3] | 2.83 ± 0.1 | 2.78 ± 0.14 | 2.63 ± 0.086 | 2.39 ± 0.11
DTSLCINGEPSIHVNRV [RRI1] | 2.99 ± 0.081 | 3.04 ± 0.073 | 2.99 ± 0.053 | 3.04 ± 0.05
MKMDKSPTESYSDIGGL [RPT2] | 3.21 ± 0.096 | 3.4 ± 0.096 | 3.38 ± 0.055 | 3.05 ± 0.059
FELFDNKTAHLSIPGKS [SNU114] | 2.11 ± 0.04 | 2.11 ± 0.055 | 2.25 ± 0.058 | 2.1 ± 0.031
WKYEDVVAKLEDKRKVR [RPL16B] | 3.12 ± 0.064 | 2.32 ± 0.059 | 2.36 ± 0.093 | 2.02 ± 0.045
KVISNPLLARKQFVVDV [RPS24A] | 1.95 ± 0.088 | 1.94 ± 0.048 | 2.14 ± 0.076 | 2.07 ± 0.05
INCNKETIENVKLQMIK [ECM29] | 3.21 ± 0.097 | 3.03 ± 0.16 | 2.93 ± 0.089 | 3.4 ± 0.13
STTNSDVSLLLQRDLFI [RGR1] | 2.76 ± 0.093 | 3.06 ± 0.1 | 2.81 ± 0.067 | 3.02 ± 0.077
GSELVQKYVGEGARMVR [RPT1] | 2.57 ± 0.22 | 2.84 ± 0.085 | 3 ± 0.085 | 2.81 ± 0.05
KPEIDENGTLLVPPPRT [RPR2] | 3.02 ± 0.048 | 3.15 ± 0.051 | 2.99 ± 0.036 | 2.987 ± 0.029
APPQTRKFQPPPGFKRK [SMB1] | 3.18 ± 0.088 | 3.19 ± 0.1 | 3.17 ± 0.084 | 3.28 ± 0.063
LNHRNKNQHRAASWYGS [RMP1] | 2.86 ± 0.092 | 3.31 ± 0.07 | 3.17 ± 0.056 | 3.06 ± 0.044
